# Measurements as given in publication PMC7268246, “Purification and immobilization of engineered glucose dehydrogenase: a new approach to producing gluconic acid from breadwaste” (Biotechnology for Biofuels, 2020).
# B1: recombinant glucose dehydrogenase (GDH) from Sulfolobus solfataricus (enzyme, UniProt O93715 1-366, looked up)
# chain: MKAIIVKPPNAGVQVKDVDEKKLDSYGKIKIRTIYNGICGTDREIVNGKLTLSTLPKGKDFLVLGHEAIGVVEESYHGFSQGDLVMPVNRRGCGICRNCLVGRPDFCETGEFGEAGIHKMDGFMREWWYDDPKYLVKIPKSIEDIGILAQPLADIEKSIEEILEVQKRVPVWTCDDGTLNCRKVLVVGTGPIGVLFTLLFRTYGLEVWMANRREPTEVEQTVIEETKTNYYNSSNGYDKLKDSVGKFDVIIDATGADVNILGNVIPLLGRNGVLGLFGFSTSGSVPLDYKTLQEIVHTNKTIIGLVNGQKPHFQQAVVHLASWKTLYPKAAKMLITKTVSINDEKELLKVLREKEHGEIKIRILWE
# notes: glucose dehydrogenase (GDH) of Sulfolobus solfataricus; the discussion gives the monomer as 366 amino acid residues (41 kDa); the tagged construct has 43 kDa; also called engineered GDH; recombinant GDH; source: E. coli BL21-DE3 (pET30a), lysate heat treated at 70 °C, purified (Ni-NTA, dialysis, size exclusion chromatography)
# Biological target: the molecule itself
# Assay: SEC; Superdex Increase 10x300GL column on an ÄKTA Pure system; Ni-NTA purified GDH dialysed into 100 mM HEPES pH 7.4, 200 mM MgCl2, 10% glycerol; run in one buffer only
protein,measurement,value
B1,stoichiometry N,4
